Measured values taken from paper PMC9679424, “The CARD8 T60 variant associates with NLRP1 and negatively regulates its activation” (Frontiers in Immunology, 2022).

Molecular target: T1, NLRP1-FLAG (human, UniProt Q9C000-1 1-1473)
T1 construct: NLRP1, human, UniProt Q9C000-1, full length; The host of the purified protein is told only as a mammalian expression system; also called full-length NLRP1; Flag-tagged NLRP1; source: HEK 293T, transiently transfected, in lysate; also purified using mammalian protein expression system
T1 sequence (looked up): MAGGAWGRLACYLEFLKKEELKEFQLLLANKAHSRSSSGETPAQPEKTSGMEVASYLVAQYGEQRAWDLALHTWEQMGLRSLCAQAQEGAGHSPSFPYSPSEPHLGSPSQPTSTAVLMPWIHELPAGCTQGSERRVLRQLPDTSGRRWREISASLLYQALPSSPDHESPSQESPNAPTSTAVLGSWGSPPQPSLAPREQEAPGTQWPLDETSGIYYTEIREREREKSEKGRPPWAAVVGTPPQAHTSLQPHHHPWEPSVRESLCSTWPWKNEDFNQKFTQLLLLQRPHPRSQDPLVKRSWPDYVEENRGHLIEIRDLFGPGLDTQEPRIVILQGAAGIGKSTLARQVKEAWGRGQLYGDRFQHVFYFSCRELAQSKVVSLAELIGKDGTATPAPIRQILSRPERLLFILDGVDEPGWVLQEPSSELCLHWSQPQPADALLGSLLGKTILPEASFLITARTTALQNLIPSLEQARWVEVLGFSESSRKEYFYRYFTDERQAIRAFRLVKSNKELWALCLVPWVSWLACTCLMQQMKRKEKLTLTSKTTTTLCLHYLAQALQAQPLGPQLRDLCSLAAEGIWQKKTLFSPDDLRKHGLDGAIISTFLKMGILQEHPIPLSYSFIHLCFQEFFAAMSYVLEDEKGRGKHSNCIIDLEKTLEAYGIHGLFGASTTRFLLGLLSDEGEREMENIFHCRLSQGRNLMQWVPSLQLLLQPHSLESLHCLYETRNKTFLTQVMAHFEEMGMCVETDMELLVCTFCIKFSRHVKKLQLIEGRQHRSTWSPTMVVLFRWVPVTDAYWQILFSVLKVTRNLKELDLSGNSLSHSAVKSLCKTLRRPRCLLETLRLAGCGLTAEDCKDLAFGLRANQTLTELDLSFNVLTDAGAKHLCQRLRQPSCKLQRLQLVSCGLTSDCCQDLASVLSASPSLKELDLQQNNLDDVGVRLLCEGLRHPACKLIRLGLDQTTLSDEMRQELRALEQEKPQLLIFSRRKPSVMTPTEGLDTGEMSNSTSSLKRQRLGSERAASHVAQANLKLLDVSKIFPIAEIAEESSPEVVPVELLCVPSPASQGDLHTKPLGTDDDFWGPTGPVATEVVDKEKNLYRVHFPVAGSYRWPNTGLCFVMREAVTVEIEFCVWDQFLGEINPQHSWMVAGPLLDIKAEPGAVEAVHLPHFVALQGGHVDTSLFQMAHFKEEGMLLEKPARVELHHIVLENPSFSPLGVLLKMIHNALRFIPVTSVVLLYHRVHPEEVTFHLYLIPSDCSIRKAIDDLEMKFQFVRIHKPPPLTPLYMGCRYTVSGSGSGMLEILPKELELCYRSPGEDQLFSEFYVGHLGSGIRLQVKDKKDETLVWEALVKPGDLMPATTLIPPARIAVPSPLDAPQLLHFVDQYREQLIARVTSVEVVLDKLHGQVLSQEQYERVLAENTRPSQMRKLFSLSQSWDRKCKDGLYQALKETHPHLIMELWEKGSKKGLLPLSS
Assay: co-IP; HEK 293T cells transiently co-transfected, 28 hours; lysate (20 mM Tris-HCl pH 7.5, 100 mM KCl, 5 mM MgCl2, 0.3% NP-40); precipitation by the Strep tag of CARD8-T60-Strep (anti-Strep; Strep-Tactin gel) overnight at 4 °C; immunoblotting
Conditions: partners not purified

B1: CARD8-T60-Strep (natural protein, human, UniProt Q9Y2G2-5 1-537, looked up)
chain: MEKKECPEKSSSSEEELPRRDSGSSRNIDASKLIRLQGSRKLLVDNSIRELQYTKTGIFFQAEACVTNDTVYRELPCVSETLCDISHFFQEDDETEAEPLLFRAVPECQLSGGDIPSVSEEQESSEGQDSGDICSEENQIVSSYASKVCFEIEEDYKNRQFLGPEGNVDVELIDKSTNRYSVWFPTAGWYLWSATGLGFLVRDEVTVTIAFGSWSQHLALDLQHHEQWLVGGPLFDVTAEPEEAVAEIHLPHFISLQAGEVDVSWFLVAHFKNEGMVLEHPARVEPFYAVLESPSFSLMGILLRIASGTRLSIPITSNTLIYYHPHPEDIKFHLYLVPSDALLTKAIDDEEDRFHGVRLQTSPPMEPLNFGSSYIVSNSANLKVMPKELKLSYRSPGEIQHFSKFYAGQMKEPIQLEITEKRHGTLVWDTEVKPVDLQLVAASAPPPFSGAAFVKENHRQLQARMGDLKGVLDDLQDNEVLTENEKELVEQEKTRQSKNEALLSMVEKKGDLALDVLFRSISERDPYLVSYLRQQNL
notes: CARD8, T60 isoform, human, UniProt Q9Y2G2-5, full length; The host of the purified protein is told only as a mammalian expression system; also called CARD8-Strep; T60 isoform of CARD8; source: HEK 293T, transiently transfected, in lysate; also purified using mammalian protein expression system
B1: binds.
